Laboratory results from article PMC8229658 (Viruses, 2021).

Molecular target: T1, Flag-tagged human RuvBL2 (recombinant) (human, UniProt Q9Y230 1-463)
T1 construct: also called Flag-RuvBL2
Assay: pull-down
Details: both partners purified

T1 sequence (Q9Y230 whole entry): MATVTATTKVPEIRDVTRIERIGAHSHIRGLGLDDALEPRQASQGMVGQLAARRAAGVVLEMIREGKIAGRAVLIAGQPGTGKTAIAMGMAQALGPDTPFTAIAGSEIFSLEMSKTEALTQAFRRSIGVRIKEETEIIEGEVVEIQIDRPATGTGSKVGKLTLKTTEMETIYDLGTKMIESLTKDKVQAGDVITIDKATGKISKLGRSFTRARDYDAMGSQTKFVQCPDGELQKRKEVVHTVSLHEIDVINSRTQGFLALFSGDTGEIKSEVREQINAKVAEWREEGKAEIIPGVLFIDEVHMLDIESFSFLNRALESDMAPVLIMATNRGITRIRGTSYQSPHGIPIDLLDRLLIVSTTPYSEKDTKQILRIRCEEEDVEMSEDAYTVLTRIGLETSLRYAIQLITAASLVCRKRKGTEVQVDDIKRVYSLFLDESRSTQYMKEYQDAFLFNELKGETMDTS

B1: GST-tagged RBD (amino acids 1-73) of the NS1 of PR8 virus (domain or fragment)
chain: MDPNTVSSFQVDCFLWHVRKRVADQELGDAPFLDRLRRDQKSLRGRGSTLGLDIETATRAGKQIVERILKEES
notes: also called GST-RBD
binding result: binds
